Results taken from article PMC10053439.

Biological target: GAD-SNX5, C-terminally truncated splice variant of SNX5 lacking the last 45 amino acids
Assay: yeast two-hybrid β-galactosidase liquid assay
Details: mean of four transformants with SD; parent: est. 190; read off a plot

Substance: LexA-VPS13A(VAB), LexA DNA-binding domain fusion to the VAB domain of VPS13A (from UniProt Q96RL7) N2418S
- response: 21 U
